Assay results from article PMC4302019.

Molecular target: SibV (predicted extradiol dioxygenase of sibiromycin biosynthesis), holo form reconstituted with Fe2+ (Streptosporangium sibiricum)
Experiment: SEC

stoichiometry N: 2
Substance: SibV (predicted extradiol dioxygenase of sibiromycin biosynthesis), holo form reconstituted with Fe2+ (enzyme)
